We go through four molecules from patent US20220363757A1 (SYMPHOGEN A S, published 2022).

Common to all, as to assay: SPR, Fab over captured mutant LAG-3-Fc;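 further: fc fusion variants captured on anti-human IgG Fc sensor, Fab injected with association then dissociation phases, KD obtained from Langmuir one-to-one fit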
For orientation: SPR reads the build-up and loss of mass on a sensor chip optically.

Test [1] addresses T1, human LAG-3 domain 1-2 Fc fusion, point mutation #45 R98A (human, UniProt P18627 23-266).
T1 construct: not shown: human IgG1 Fc, AA P101-K330
T1 sequence: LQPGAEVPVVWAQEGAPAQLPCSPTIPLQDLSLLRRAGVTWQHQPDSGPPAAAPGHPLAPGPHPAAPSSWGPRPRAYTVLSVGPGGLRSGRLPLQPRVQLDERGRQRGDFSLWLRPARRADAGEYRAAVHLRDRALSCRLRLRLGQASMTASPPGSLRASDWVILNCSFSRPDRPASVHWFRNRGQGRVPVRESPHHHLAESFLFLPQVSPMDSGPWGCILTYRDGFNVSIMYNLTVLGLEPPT

For test [2], the target named is T2, human LAG-3 domain 1-2 Fc fusion, point mutation #76 D143A (human, UniProt P18627 23-266).
T2 construct: not shown: human IgG1 Fc, AA P101-K330
T2 sequence: T1 sequence with A76R, D121A

In test [3] the target is T3, human LAG-3 domain 1-2 Fc fusion, point mutation #9 D52A (human, UniProt P18627 23-266).
T3 construct: not shown: human IgG1 Fc, AA P101-K330
T3 sequence: T1 sequence with D30A, A76R

Test [4] deals with T4, human LAG-3 domain 1-2 Fc fusion, point mutation #56 G112A (human, UniProt P18627 23-266).
T4 construct: not shown: human IgG1 Fc, AA P101-K330
T4 sequence: T1 sequence with A76R, G90A

The target in test [5] is T5, human LAG-3 domain 1-2 Fc fusion, point mutation #49 G105A (human, UniProt P18627 23-266).
T5 construct: not shown: human IgG1 Fc, AA P101-K330
T5 sequence: T1 sequence with A76R, G83A

Test [6] concerns the target T6, human LAG-3 domain 1-2 Fc fusion, point mutation #38 S91A (human, UniProt P18627 23-266).
T6 construct: not shown: human IgG1 Fc, AA P101-K330
T6 sequence: T1 sequence with S69A, A76R

For test [7], the target named is T7, human LAG-3 domain 1-2 Fc fusion, point mutation #60 P118A (human, UniProt P18627 23-266).
T7 construct: not shown: human IgG1 Fc, AA P101-K330
T7 sequence: T1 sequence with A76R, P96A

For test [8], the target named is T8, human LAG-3 domain 1-2 Fc fusion, point mutation #68 Q128A (human, UniProt P18627 23-266).
T8 construct: not shown: human IgG1 Fc, AA P101-K330
T8 sequence: T1 sequence with A76R, Q106A

Test [9] has as its target T9, human LAG-3 domain 1-2 Fc fusion, point mutation #46 Y99A (human, UniProt P18627 23-266).
T9 construct: not shown: human IgG1 Fc, AA P101-K330
T9 sequence: T1 sequence with A76R, Y77A

Substitutions are numbered along the chain they refer to.

B1: Fab fragment of antibody 15572 (Fab, V domains shown, not shown: a dimerising Fc or GST)
VH: QLQLQESGPGLVKPSETLSLTCTVSGDSISSSSYYWGWIRQPPGKGLEWIGSIFYSGNTYYNPSLKSRVTISVDTSKNQFSLKLSSVTAADTAVYYCAREDDFLTDYYGAFDIWGQGTMVTVSS
VL: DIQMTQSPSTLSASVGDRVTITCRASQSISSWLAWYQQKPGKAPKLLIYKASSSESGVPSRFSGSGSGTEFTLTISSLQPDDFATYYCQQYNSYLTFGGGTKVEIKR
notes: monomeric Fab made by GingisKHAN digestion of the IgG1
Take B1: the “KD mutant/KD wild type” value in test [1] is 0.9 fold; in test [4] it was 0.5 fold; in test [5] it was 0.4 fold; in test [6] it was 0.7 fold; in test [7], 0.9 fold; in [8], 0.9 fold. For the same molecule, the binding result in [2], in test [3] and in test [9] was “no binding (tested: 300 nM)” each time.

B2: Fab fragment of antibody 15011 (Fab, V domains shown, not shown: a dimerising Fc or GST)
VH: EVQLLESGGGLVQPGGSLRLSCAASGFDFRSYAMMWVRQAPGKGLEWVGGINGEVGGSNTYYAPAVKGRATISRDNSKNTLYLQMNSLRAEDTAVYYCVKGAGACGICNDDIDAWGQGTLVTVSS
VL: SYELTQDPAVSVALGQTVRITCSGAGSYAGSYYYGWHQQKPGQAPVTVIYDNDKRPSNIPDRFSGSSSGNTASLTITGAQAEDEADYYCGSTNDNDDGGLFGSGTKVTVLG
notes: as for B1
B2: the “KD mutant/KD wild type” value in test [1] was 1.2 fold; in test [2], 0.5 fold; in test [3] it was 0.7 fold; in test [4], 3.1 fold; in test [5] it was 1.6 fold; in test [6] it was 0.8 fold. For the same molecule, the “KD mutant/KD wild type” value in test [7] was 1.2 fold; in test [8], 1 fold; in test [9], 0.5 fold.

B3: Fab fragment of antibody 15532 (Fab, V domains shown, not shown: a dimerising Fc or GST)
VH: QVQLQQWGAGLLRPSETLSLTCAVYGESFSGYYWNWIRQPPGKGLEWIGEINHSGSTNYNPSLKSRVTISVDTSKTQFSLKLSSVTAADTAVYYCARGWDLLDWNDYWNEYWGQGTLVTVSS
VL: EIVLTQSPATLSLSPGERATLSCRASQSVSSYLAWYQQKPGQAPRLLIYDASNRATGIPARFSGSGSGTDFTLTISSLEPEDFAVYYCQQRSNWPLTFGGGTKVEIKR
notes: as for B1
As to B3, the “KD mutant/KD wild type” value was determined as 1.6 fold in [1]; 3.8 fold in [2]; 1.7 fold in test [3]; 1 fold in [4]; 1.1 fold in test [5]; 5.3 fold in [6]. Further, the entries for the “KD mutant/KD wild type” value in [7], in test [8] and in [9] were 0.7 fold, 0.7 fold and 4.1 fold, respectively.

B4: Fab fragment of antibody 15431 (Fab, V domains shown, not shown: a dimerising Fc or GST)
VH: QVQLQQSGPGLVKPSQTLSLTCAISGDSVSSNSAAWNWIRQSPSRGLEWLGRTYYRSKWYNDYAVSVKSRITINPDTSKNQFSLQLNSVTPEDTAVYYCARDDDWNDFDYWGQGTLVTVSS
VL: B3 VL
notes: as for B1
As to B4, the binding result in test [1], in test [2], in test [3] and in test [9] was “no binding (tested: 300 nM)” throughout. Also, the “KD mutant/KD wild type” value was 0.5 fold in test [4]; 0.4 fold in [5]; 0.7 fold in [6]; 1 fold in test [7]; 0.8 fold in test [8].
